B1: Lysosomal cobalamin transport escort protein LMBD1 (Homo sapiens), Q9NUN5 (parent)
chain: MATSGAASAELVIGWCIFGLLLLAILAFCWIYVRKYQSRRESEVVSTITAIFSLAIALITSALLPVDIFLVSYMKNQNGTFKDWANANVSRQIEDTVLYGYYTLYSVILFCVFFWIPFVYFYYEEKDDDDTSKCTQIKTALKYTLGFVVICALLLLVGAFVPLNVPNNKNSTEWEKVKSLFEELGSSHGLAALSFSISSLTLIGMLAAITYTAYGMSALPLNLIKGTRSAAYERLENTEDIEEVEQHIQTIKSKSKDGRPLPARDKRALKQFEERLRTLKKRERHLEFIENSWWTKFCGALRPLKIVWGIFFILVALLFVISLFLSNLDKALHSAGIDSGFIIFGANLSNPLNMLLPLLQTVFPLDYILITIIIMYFIFTSMAGIRNIGIWFFWIRLYKIRRGRTRPQALLFLCMILLLIVLHTSYMIYSLAPQYVMYGSQNYLIETNITSDNHKGNSTLSVPKRCDADAPEDQCTVTRTYLFLHKFWFFSAAYYFGNWAFLGVFLIGLIVSCCKGKKSVIEGVDEDSDISDDEPSVYSA
partner: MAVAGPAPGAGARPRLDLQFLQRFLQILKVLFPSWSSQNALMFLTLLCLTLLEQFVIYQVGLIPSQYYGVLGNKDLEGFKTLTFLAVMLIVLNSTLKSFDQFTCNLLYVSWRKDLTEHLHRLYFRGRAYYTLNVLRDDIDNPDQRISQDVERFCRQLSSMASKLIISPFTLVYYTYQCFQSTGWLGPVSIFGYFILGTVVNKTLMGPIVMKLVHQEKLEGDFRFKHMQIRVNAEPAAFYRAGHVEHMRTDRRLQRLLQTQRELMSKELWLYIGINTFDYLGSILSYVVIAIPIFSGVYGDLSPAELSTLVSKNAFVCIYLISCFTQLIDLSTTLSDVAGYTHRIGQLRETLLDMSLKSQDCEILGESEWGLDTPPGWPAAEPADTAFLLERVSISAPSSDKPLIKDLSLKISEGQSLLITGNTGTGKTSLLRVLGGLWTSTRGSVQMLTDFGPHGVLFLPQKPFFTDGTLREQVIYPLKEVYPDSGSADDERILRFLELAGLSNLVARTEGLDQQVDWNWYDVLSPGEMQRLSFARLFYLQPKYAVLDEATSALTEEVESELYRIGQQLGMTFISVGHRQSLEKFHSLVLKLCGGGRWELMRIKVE
B2: Lysosomal cobalamin transporter ABCD4 (Homo sapiens), O14678 (parent)
chain: B1 partner
partner: B1 chain

One assay covers variants of B1. Particulars: with abcd4_human ABCD4, O14678.
Turning to Y232A, the “effect of a mutation on the interaction” value was “decreasing interaction strength”.

In another assay the parent is B2. The following applies: with lmbd1_human LMBRD1, Q9NUN5.
As for N141K, the “effect of a mutation on the interaction” value is recorded as “decreasing interaction strength”. On the same count and under the same terms, the result for D548N reads “decreasing interaction strength”. Still for that read-out and setting: the result for G426A reads “decreasing interaction strength”. On the same count and under the same terms, the result for K427L reads “decreasing interaction strength”; that for G426A;K427L, “disrupting interaction strength”. Turning to R432Q, the “effect of a mutation on the interaction” value was “decreasing interaction strength”.

In a further assay the parent is B2. The following applies: with lmbd1_human LMBRD1, Q9NUN5. The source holds these as a separate data set.
Turning to G426A;K427L, the “effect of a mutation on the interaction” value was “decreasing interaction strength”.

For the origin of these results see IntAct's records for PubMed 28572511.
